Source: patent US7135457 (CYTOGEN, dated 2006)

B1: phage DAB30 (peptide)
peptide: SGFWEFSRGLWDGENRKSVRSGCGFRGSSAQGPCPVTPATIDKH
notes: pIII and flanks not included
B2: phage DAB18 (peptide)
peptide: RSSANNCEWKSDWMRRACIARYANSSGPARAVDTKAAP
notes: pIII and flanks not included
B3: phage DAX27 (peptide)
peptide: SHPWYRHWNHGDFSGSGQSRHTPPESPHPGRPNATI
notes: pIII and flanks not included
B4: phage DAX23 (peptide)
peptide: REWRFAGPPLDLWAGPSLPSFNASSHPRALRTYWSQRPR
notes: pIII and flanks not included
B5: phage DAX15 (peptide)
peptide: SESGRCRSVSRWMTTWQTQKGGCGSNVSRGSPLDPSHQTGHATT
notes: pIII and flanks not included
B6: phage DAB10 (peptide)
peptide: SKSGEGGDSSRGETGWARVRSHAMTAGRFRWYNQLPSDR
notes: pIII and flanks not included
B7: phage DAB7 (peptide)
peptide: RWCGADDPCGASRWRGGNSLFGCGLRCSAAQSTPSGRIHSTSTS
notes: pIII and flanks not included
B8: phage DAB24 (peptide)
peptide: SKWSWSSRWGSPQDKVEKTRAGCGGSPSSTNCHPYTFAPPPQAG
notes: pIII and flanks not included
B9: phage DAB3 (peptide)
peptide: RWCGAELCNSVTKKFRPGWRDHANPSTHHRTPPPSQSSP
notes: pIII and flanks not included
B10: phage DAX24 (peptide)
peptide: RMEDIKNSGWRDSCRWGDLRPGCGSRQWYPSNMRSSRDYPAGGH
notes: pIII and flanks not included
B11: phage DCX8 (peptide)
peptide: RYKHDIGCDAGVDKKSSSVRGGCGAHSSPPRAGRGPRGTMVSRL
notes: pIII and flanks not included
B12: phage DCX26 (peptide)
peptide: SGRTTSEISGLWGWGDDRSGYGWGNTLRPNYIPYRQATNRHRYT
notes: pIII and flanks not included
B13: phage DCX11 (peptide)
peptide: SQGSKQCMQYRTGRLTVGSEYGCGMNPARHATPAYPARLLPRYR
notes: pIII and flanks not included
B14: phage PAX15 (peptide)
peptide: SYCRVKGGGEGGHTDSNLARSGCGKVARTSRLQHINPRATPPSR
notes: pIII and flanks not included
B15: phage P31 (peptide)
peptide: SARDSGPAEDGSRAVRLNGVENANTRKSSRSNPRGRRHP
notes: pIII and flanks not included
B16: phage PAX17 (peptide)
peptide: SQVDSFRNSFRWYEPSRALCHGCGKRDTSTTRIHNSPSDSYPTR
notes: pIII and flanks not included
B17: phage PAX16 (peptide)
peptide: SWTRWGKHTHGGFVNKSPPGKNATSPYTDAQLPSDQGPP
notes: pIII and flanks not included
B18: phage 5PAX12 (peptide)
peptide: RGWKCEGSQAAYGDKDIGRSRGCGSITKNNTNHAHPSHGAVAKI
notes: pIII and flanks not included
B19: phage PAX18 (peptide)
peptide: SFLRFQSPRFEDYSRTISRLRNATNPSNVSDAHNNRALA
notes: pIII and flanks not included
B20: phage P90 (peptide)
peptide: SSADAEKCAGSLLWWGRQNNSGCGSPTKKHLKHRNRSQTSSSSH
notes: pIII and flanks not included
B21: phage PAX9 (peptide)
peptide: RWPSVGYKGNGSDTIDVHSNDASTKRSLIYNHRRPLFP
notes: pIII and flanks not included
B22: phage PAX40 (peptide)
peptide: RASTQGGRGVAPEFGASVLGRGCGSATYYTNSTSCKDAMGHNYS
notes: pIII and flanks not included
B23: phage PAX43 (peptide)
peptide: RWCEKHKFTAARCSAGAGFERDASRPPQPAHRDNTNRNA
notes: pIII and flanks not included
B24: phage PAX46 (peptide)
peptide: SRCTDNEQCPDTGTRSRSVSNARYFSSRLLKTHAPHRP
notes: pIII and flanks not included
B25: phage PAX14 (peptide)
peptide: RTFENDGLGVGRSIQKKSDRWYASHNIRSHFASMSPAGK
notes: pIII and flanks not included
B26: phage PAX35 (peptide)
peptide: RSITDGGINEVDLSSVSNVLENANSHRAYRKHRPTLKRP
notes: pIII and flanks not included
B27: phage PAX45 (peptide)
peptide: SFQVYPDHGLERHALDGTGPLYAMPGRWIRARPQNRDRQ
notes: pIII and flanks not included
B28: phage PAX38 (peptide)
peptide: SSKVSSPRDPTVPRKGGNVDYGCGHRSSARMPTSALSSITKCYT
notes: pIII and flanks not included
B29: phage SNi28 (peptide)
peptide: SHSGGMNRAYGDVFRELRDRWNATSHHTRPTPQLPRGPN
notes: pIII and flanks not included
B30: phage S15 (peptide)
peptide: RSGAYESPDGRGGRSYVGGGGGCGNIGRKHNLWGLRTASPACWD
notes: pIII and flanks not included
B31: phage SNiAX6 (peptide)
peptide: RTTTAKGCLLGSFGVLSGCSFTPTSPPPHLGYPPHSVN
notes: pIII and flanks not included
B32: phage SNi10 (peptide)
peptide: RVGQCTDSDVRRPWARSCAHQGCGAGTRNSHGCITRPLRQASAH
notes: pIII and flanks not included
B33: phage SNi34 (peptide)
peptide: SPCGGSWGRFMQGGLFGGRTDGCGAHRNRTSASLEPPSSDY
notes: pIII and flanks not included
B34: phage SNi38 (peptide)
peptide: RGAADQRRGWSENLGLPRVGWDAIAHNSYTFTSRRPRPP
notes: pIII and flanks not included
B35: phage S22 (peptide)
peptide: SSSSDWGGVPGKVVRERFKGRGCGISITSVLTGKPNPCPEPKAA
notes: pIII and flanks not included
B36: phage SNiAX8 (peptide)
peptide: SPKLSSVGVMTKVTELPTEGPNAISIPISATLGPRNPLR
notes: pIII and flanks not included
B37: phage SNi45 (peptide)
peptide: SGGEVSSWGRVNDLCARVSWTGCGTARSARTDNKGFLPKHSSLR
notes: pIII and flanks not included
B38: phage SNiAX2 (peptide)
peptide: SDSDGDHYGLRGGVRCSLRDRGCGLALSTVHAGPPSFYPKLSSP
notes: pIII and flanks not included

target: T1, human D2H transporter receptor domain, amino acid residues 387-685, His-tag fusion protein (human, UniProt Q07837 387-685); test: phage ELISA, OD on D2H over OD on BSA
T1 construct: Expressed as His-tag fusion, purified under denaturing conditions, coated on plates; not shown: poly-histidine tag (pET His-tag) at the NH2-terminal end
T1 sequence: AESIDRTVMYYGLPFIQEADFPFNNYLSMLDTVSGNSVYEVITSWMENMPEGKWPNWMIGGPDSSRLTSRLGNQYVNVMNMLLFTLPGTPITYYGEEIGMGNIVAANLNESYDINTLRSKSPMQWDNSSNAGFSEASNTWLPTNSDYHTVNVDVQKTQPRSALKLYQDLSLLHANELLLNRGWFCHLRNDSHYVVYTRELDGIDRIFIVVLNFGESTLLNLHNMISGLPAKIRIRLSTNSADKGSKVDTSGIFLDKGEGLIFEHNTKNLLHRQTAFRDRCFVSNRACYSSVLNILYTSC
Description: (§1) 6.6. Receptor ELISA Procedure 96 well plates were coated overnight with GIT receptor, BSA and, optionally, IDE (insulin degrading enzyme, an irrelevant His-fusion protein) or hTF. The plates were blocked for one hour with 0.5% BSA-PBS. After clarification, the amplified phage were diluted 1:100 in 1% BSA plus 0.05% Tween 20 in PBS and added to the plates. Following incubation of the plates on a rotator for 1 to 2 hours, the plates were washed 5 times with 1% BSA plus 0.05% Tween 20 in PBS. […] After the plates were washed 5 times, as described above, TMB substrate was added to the wells. The plates were read at 650 nm absorbance.

Binder | D2H/BSA [ratio]
B1 | 6
B2 | 5
B3 | 4
B4 | 5
B5 | 4
B6 | 4
B7 | 8
B8 | 4
B9 | 6
B10 | 5

target: T1, human D2H transporter receptor domain, …; test: phage ELISA, coated D2H domain
Description: as §1

Binder | OD [OD 650 nm]
B1 | 0.704
B2 | 0.467
B3 | 1.58
B4 | 0.698
B5 | 0.391
B6 | 0.644
B7 | 0.702
B8 | 1.8
B9 | 0.406
B10 | 0.591

target: T1, human D2H transporter receptor domain, …; test: phage ELISA, coated D2H domain; remark: another data set of the same source
Description: as §1
(§2) Binding to fixed Caco-2 cells, D2H and BSA was examined.

Binder | OD [OD 650 nm]
B11 | 0.163
B12 | 0.956
B13 | 0.222

target: T2, human PEPT1 (hPEPT1) receptor domain, amino acid residues 391-571, His-tag fusion protein (human, UniProt P46059 391-571); test: phage ELISA, coated hPEPT1 domain
T2 construct: Expressed as His-tag fusion, purified under denaturing conditions, coated on plates; not shown: poly-histidine tag (pET His-tag) at the NH2-terminal end
T2 sequence: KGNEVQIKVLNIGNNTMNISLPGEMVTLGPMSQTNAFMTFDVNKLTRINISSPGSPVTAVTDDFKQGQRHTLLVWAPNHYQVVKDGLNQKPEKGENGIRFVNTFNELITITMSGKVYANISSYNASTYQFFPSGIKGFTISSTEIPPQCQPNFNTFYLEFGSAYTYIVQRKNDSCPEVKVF
Description: as §1

Binder | OD [OD 650 nm]
B14 | 0.301
B15 | 0.807
B16 | 0.514
B17 | 0.648
B18 | 0.227
B19 | 0.416
B20 | 1.12
B21 | 0.312
B22 | 0.461
B23 | 0.345
B24 | 0.429
B25 | 1.1
B26 | 0.474
B27 | 0.419
B28 | 0.292

target: T1, human D2H transporter receptor domain, …; test: phage ELISA, OD on D2H over OD on BSA; remark: another data set of the same source
Description: as §1, §2

Binder | D2H/BSA [ratio]
B11 | 3
B12 | 4
B13 | 3

target: T2, human PEPT1 (hPEPT1) receptor domain, …; test: phage ELISA, OD on hPEPT1 over OD on BSA
Description: as §1

Binder | PEPT1/BSA [ratio]
B14 | 4
B15 | 11
B16 | 5
B17 | 4
B18 | 6
B19 | 5
B20 | 9
B21 | 4
B22 | 6
B23 | 5
B24 | 6
B25 | 8
B26 | 7
B27 | 5
B28 | 5

target: T3, human sucrase-isomaltase complex (hSI) receptor domain, amino acid residues 272-667, His-tag fusion protein (human, UniProt P14410 272-667); test: phage ELISA, OD on hSI over OD on BSA
T3 construct: Expressed as His-tag fusion, purified under denaturing conditions (urea or guanidine HCl), coated on plates; also called hS1 receptor domain; not shown: poly-histidine tag (pET His-tag) at the NH2-terminal end
T3 sequence (P14410 272-667, one chain of several): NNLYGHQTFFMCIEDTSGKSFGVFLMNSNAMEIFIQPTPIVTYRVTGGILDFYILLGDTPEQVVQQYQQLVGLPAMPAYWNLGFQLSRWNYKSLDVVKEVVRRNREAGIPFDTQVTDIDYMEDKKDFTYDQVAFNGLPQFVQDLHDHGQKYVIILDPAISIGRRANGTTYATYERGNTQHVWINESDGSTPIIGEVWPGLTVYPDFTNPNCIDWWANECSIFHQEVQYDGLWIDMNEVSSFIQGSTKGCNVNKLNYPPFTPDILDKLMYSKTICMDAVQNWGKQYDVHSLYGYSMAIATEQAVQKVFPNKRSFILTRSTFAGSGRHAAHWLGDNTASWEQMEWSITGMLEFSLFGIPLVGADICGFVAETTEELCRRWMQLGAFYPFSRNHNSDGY

Binder | hSI/BSA [ratio]
B29 | 8
B30 | 9
B31 | 7
B32 | 11
B33 | 7
B34 | 6
B35 | 7
B36 | 5
B37 | 9
B38 | 6

target: T3, human sucrase-isomaltase complex (hSI) …; test: phage ELISA, coated hSI domain

Binder | OD [OD 650 nm]
B29 | 0.942
B30 | 0.478
B31 | 0.369
B32 | 0.57
B33 | 0.761
B34 | 0.466
B35 | 0.399
B36 | 0.342
B37 | 0.518
B38 | 0.383
